This assay deals with Daedalus-expressed CARMA-CARD (N-terminal CARD domain of human CARMA1, Asp2-Thr104) (human). Put plainly: SEC. Background: Size exclusion chromatography separates by hydrodynamic size, large species first.

Turning to “Daedalus-expressed CARMA-CARD (N-terminal CARD domain of human CARMA1, Asp2-Thr104) (domain or fragment)”, the stoichiometry N is 2.

Broadly, the stoichiometry N is the number of molecules, sites or subunits per partner or assembly.
